# Data from patent US20070104732A1 (published 2007).
# B1: Chimeric adenoviral fiber FK4m of AdFK4m/GFP (S->E at aa 408, K4 K-coil at the C-terminus) (other)
# chain (part 1 of 2): MKRARPSEDTFNPVYPYDTETGPPTVPFLTPPFVSPNGFQESPPGVLSLRLSEPLVTSNGMLALKMGNGLSLDEAGNLTSQNVTTVSPPLKKTKSNINLEISAPLTVTSEALTVAAAAPLMVAGNTLTMQSQAPLTVHDSKLSIATQGPLTVSEGKLALQTSGPLTTTDSSTLTITASPPLTTATGSLGIDLKEPIYTQNGKLGLKYGAPLHVTDDLNTLTVATGPGVTINNTSLQTKVTGALGFDSQGNMQLNVAGGLRIDSQNRRLILDVSYPFDAQNQLNLRLGQGPLFINSAHNLDINYNKGLYLFTASNNSKKLEVNLSTAKGLMFDATAIAINAGDGLEFGSPNAPNTNPLKTKIGHGLEFDSNKAMVPKLGTGLSFDSTGAITVGNKNNDKLTLWTTPAPEPNCRLNAEKDAKLTLVLTKCGSQILATVSVLAVKGSLAPISGTVQSAHLIIRFDENGVLLNNSFLDPEYWNFRNGDLTEGTAYTNAVGFMPNLSAYPKSHGKTAKSNIVSQVYLNGDKTKPVTLTITLNGTQETGDTTPSAYSMSFSWDWSGHNYINEIFATSSYTFSYIAQE
# chain (part 2 of 2): KVSALKEKVSALKEKVSALKEKVSALKE
# Experiments:
# Experiment in all cases: cell-based or functional assay
# [1] = target: EGFR-Ecoil pseudoreceptor (UniProt P00533)
# [2] = target: cellular proteins integrins
# [3] = target: EGFR-Ecoil pseudoreceptor (UniProt P00533 646-1210)
molecule,measurement,setting,value
K-coil soluble peptide,"inhibition of AdFK4m/GFP mediated GFP gene transfer in 293E cells after pre-incubation with 2 ug K-coil soluble peptide, MOI 0.05",[1],80%
"Modified fiber FK4mm-RGD of AdFK4mmRGD/GFP (S->E at aa 408, P->A at aa 409, RGD motif in the HI-loop, K4 K-coil at the C-terminus) (from UniProt P11818 1-581)","transduction efficiency of AdFK4mmRGD/GFP in HeLa-rtTA and A549-tTA cells relative to AdFK4m/GFP (GFP expression, flow cytometry)",[2],3 to 6 fold
same,"transduction of 293E cells by AdFK4mmRGD/GFP relative to AdFK4m/GFP (GFP expression, flow cytometry)",[2],2 to 3 times
B1,"transduction efficiency (GFP expression, flow cytometry) of AdFK4m/GFP in 293E cells compared with 293 cells, MOI 0.01",[3],7 fold
same,"transduction efficiency (GFP expression, flow cytometry) of AdFK4m/GFP in 293E cells compared with 293 cells, MOI 0.05",[3],24 fold
same,"transduction efficiency (GFP expression, flow cytometry) of AdFK4m/GFP in 293E cells compared with 293 cells, MOI 0.5",[3],11 fold
same,"transduction efficiency (GFP expression, flow cytometry) of AdFK4m/GFP in 293E cells compared with 293 cells, MOI 0.8",[3],8 fold
